Reference: the nanobody polyreactivity screen of Harvey et al. (2022)

Test: yeast display, Sf9 membrane polyspecificity reagent, FACS + sequencing; frameworks hold sequencing errors
Outline: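 Genes from sorted yeast were amplified by colony PCR, read by MiSeq 2 × 250 sequencing and filtered on CDR length. These cells carried a synthetic nanobody library in Saccharomyces cerevisiae BJ5465 and were sorted by FACS into low and high (top ~1%) gates on anti-HA and streptavidin fluorescence. Polyreactivity is labelled according to the gate of origin.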

QVQLVESGGGLVQAGGSLRLSCAASGRTFTRYTMGWYRQAAGKERELVAAISYSGGSTYYADSVKGRFTISRDNAKNTVYLQMNSLKPEDTAVYYCAAASVRWPGYDYWGQGTQVTVSS
polyreactivity (PSR sort gate): high polyreactivity

QVQLVESGGGLVQAGGSLRLSCAASGRIFYFYAMGWYRQAPGKERELVASISYSGGNTYYADSVKGRFTISRDNAKNTVYLQMNSLKPEDTAVYYCNVLPNTGARGYYYWGQGTQVNVSS
polyreactivity (PSR sort gate): low polyreactivity

QVQLEESGGGLVQAGGSLRLICAASGSTFYPNAMGWYRQAPGKERELVAAITDSVGTTNYADSVKGRFTISRDNAKNTVYLQMNSLKPEDTAVYYCAKVKSYWNGYRYYYWGHGTQVTVSS
polyreactivity (PSR sort gate): low polyreactivity

QVQLVESGGGLVQAGGSLRLSCAASGSTFFVYDMGWYRQAPGKEREMVAAISISDGGTYYADSVKWRFTISRDNAKNYVYLQMNSLKPEDTAVYYCADDYSERYFRGYVYLGQGTQVTVSS
polyreactivity (PSR sort gate): low polyreactivity

QVQLVESGGGLVQAGGSLRLSCAASGSTFPGNAMGWYRQAPGKERELVARINDGADTNYADSVKGRFTISRDNAKTTVSLQMNSLKPEDTAVYYCANPYFDGRTHFDSWGQGTQVTVSS
polyreactivity (PSR sort gate): low polyreactivity

QVQLVESGGGLVQAGGSLRLSCAASGSIFGGYVMGWSRQAPGKEWELVAAITSGGSTYYADSVKGRFTISRDNAKNTVYLQMNSLKPEDTAVYYCNADPYTYSYGMYYWGQGTQVTVSS
polyreactivity (PSR sort gate): low polyreactivity

QVQLVESGGGLVQAGGSLRLSCAASGSIFKFNTMGWYRQAPGNERELVAAITRVGSTYYADSVKGRFTISRDNAKNTVYLQMNSLKPEDTAVYYCAVRQRDKFAGGRNDYWGQGTQVTVSS
polyreactivity (PSR sort gate): high polyreactivity

QVQLVESGGGLVQAGGSLRLSCAASGIIFWAYALGWYRQAPGKERELVAVISRGGSTNYADSVKGRFTISRDNAKNTVYLQMNSLKPEDTAVYYCAARYGWGQGTQVTVSS
polyreactivity (PSR sort gate): high polyreactivity

QVQLVESGGGLVQVGGSLRLSCAASGFTFYDYAMGWYRQAPGKERELVAAISRGGSTYYADSVKGRFTISRDNAKNTVYLQINSLIPEDTAVYYCNARPTRIYHGMGYWGQGTQVTVSS
polyreactivity (PSR sort gate): low polyreactivity

QVQLVESGGGLVQAGGSLRLSCAASGSNLYPYAMGWYRQAPGKERELVAAISRGGSTNYADSVKGRYTIARDNAKNTVYLQMNSLKPDDTAVYYCATAYTRFSQRYEYYVIYWQNDYWGQGTQVTVSS
polyreactivity (PSR sort gate): low polyreactivity

QVQLVESGGGLVQAGGSLRLSCAASGRIFGTNDMGWYRQAPGKETELVAAIRATSGSTYYADSVKGRFTISRDNAKNTVYLQMNSLKPEDTAVYYCAAEIWRYNSYIKYWHRLDYWGQGTQVTVSS
polyreactivity (PSR sort gate): high polyreactivity

QVQLVESGGGLVQAGGSLRLSCAASGSIFSLYAMGWYRQAPGKASELVASITSSGGRTYYADSVKGRFTITRDTAKNTVYLQMNSLKPEDTAVYYCNNQPSWVGQRVHRFDYWGQGTQVTVSS
polyreactivity (PSR sort gate): low polyreactivity

QVQLVESGGGLVQAGGSLRLSCAASGFTFDKNAMGWYRPAPGKERELVAAINIGSTYYADSVKGRFTISRDNAKNTVYLQMNRLKPEDTAVYYCAKEVPSGYWVNYYYWGQGTQVTVSS
polyreactivity (PSR sort gate): low polyreactivity

QVQLVESGGGLVQAGGSLRLSSAASGFTFIRSTMGWYRQAPGKEREFVAAITWSGDSTYYADSVKGRFTISRDNAKNTVYLQMNSLKPEDTAVYYCAAESDPYSPEYDYWGQGTQVTVSS
polyreactivity (PSR sort gate): low polyreactivity

QVQLVESGGGLVQAGGSLRLSCAASGRTFYSYAMGWYRPAPGKERELVAAISRRGGSTYYADSVKGRFTISRDNAKNTVYLQMNSLKPEDTAVYYCAKGGGRVGQPGYDYWGQGTQVTVSS
polyreactivity (PSR sort gate): high polyreactivity

QVQLVESGGGLVQAGGSLRLSCAASGRISTTYSMGWYRPAPGKERELVAAITIGGGTNYADSVKGRFTISRDNAKNTVYLQMNSLKPEDTAVFYCNADRTASFAYDYWGQGTQVTVSS
polyreactivity (PSR sort gate): low polyreactivity

QVQLVDSGGGLVQAGGSLRLSCAASGLTFRYYAMGWYRQAPGKERELVASISWSGASTYYADSVKGRFTISRDNAKNTVYLQMNSLKPEDTAVYYCNAGYFGSYDYWGQGTQVTVSS
polyreactivity (PSR sort gate): high polyreactivity

QVQHVESGGGLVQAGGSLRISCAASGFIFGPYAMGWSRKAPGKERELVAAISGRDGSTYYADSVKGRFTISRDNAKNSVYLHMNSLKPEDTAVYYCAAEVWTALYYSYYGYRYYWGQGTQVTLSS
polyreactivity (PSR sort gate): high polyreactivity

QVQLVESGGGLVQAGRSLRLSCAASGSIFSRNAMGWYRQAPGKERELVAAITGSASSTYYADSVKGRFTISRDNAKNTVYLQMNSLKPEDTAVYYCNAARVYLSECGQGTQVTVSS
polyreactivity (PSR sort gate): high polyreactivity

QVQLVESGGGLVQAGGSLRLSCAASRSTLLSNAMGWYTQAPGKERELVAAINYSGGRTYYADSVKGRFTISRDNAKNTVYLQINSLKPVDTAVYYCNALSSGHGSSSRYDYWGQGTQVTVSS
polyreactivity (PSR sort gate): low polyreactivity

QVQLVESGAGLVQAGGSLRLSCAASGLILGVYTMGWYRQAPGTEREFVASINYGGGSTYYADSVKGRFTISRDNAKNTVYLQMNSLKPEDTAVYYCNARSRWGGTRLYSYDYWGQGTKVTVSS
polyreactivity (PSR sort gate): low polyreactivity

QVQLVGSGGGLVQAGSSLRLTCAASGLIFTYYAMGWYRQAPGKEREFVAVIDSSGDSTNYADSVKGRFTISRDNAKNTVYLQMNSLKPEDTAVYYCNAYNWSYIYFPFVQEYRTYDYWGQGTQVTVSS
polyreactivity (PSR sort gate): low polyreactivity

QVQLVESGGGLVQAGGSLRISCASSGRIFTFYAMGWYRPAPGKERELVAAISSGGSTYYADSVKGRFTISRDNAKNTFYLQMNSLKPEDTAVYYCAAEPVWYADYDYWGQGTQVTVSS
polyreactivity (PSR sort gate): low polyreactivity

QVQLVESGGGLVQAGGSLRLSCAPSGHIFLQNAMGWYRQAPGKERELVAGITYSDTSTYADSVKGRFTISRDNAKNTVYLQMNSLKPEDTAVYYCEYYYWGQGTQVTVSS
polyreactivity (PSR sort gate): low polyreactivity

QVQLVESGGGLVQAGGSLRLSCAASGFIFSRNAMGWYRQAPGKERELVAAISSGGGTDYADSVKGRFTISRDNAKNTVYLQMNSLQPEDTAVYYCAASYFPGWKHSLDDYWGQGTQVTVSS
polyreactivity (PSR sort gate): low polyreactivity

QVHLVESGGGLVQAGGSLRLSCAASGFNFNKYALGWYRQAPGKERELVAAITIGGSTYYADSVKGRFTISRDNAKNTVYFQMNSLKPEDTAVYYCAAVQGKVRGGYYWGQGTQVTVSS
polyreactivity (PSR sort gate): high polyreactivity

QVQLVESGGGLVQAGGSLRLSCAASGSTFGVNAMGWYRQAPGKERELVAVITRSGGSTYYADSVKGRFTISRDNAKNTFNLQMNSLKPEDSAVYYCNTEGGRDTAWYDYWGQGTEVTVSS
polyreactivity (PSR sort gate): low polyreactivity

QVQLEESGGGLVQAGGSLRLSCAASGRTFKYYSMGWYRPAPGKERELVAAIRSRTGSTYYADSVKGRFTISRDNAKNTVYLQMNSLKPEDTAVYYCAAQPGSYYGPRWYYDDDYWGQGTQVTVSS
polyreactivity (PSR sort gate): high polyreactivity

QVQLVESGGGLVQAGGSLRLSCAASGSTFTYYAMGWYRQSPGKERELVAAISWRGGSTYYADSVKGRFTISRDNAKNTVYLQMNSLKPEDNAVYYCAASRTFYRAVTQTGSPMDYWGQGTQVTVSS
polyreactivity (PSR sort gate): high polyreactivity

QVQLVESGGGLVQAGGSLRLSCAASGRIFSVYGMGWYRQAPGKDRELVAAISSSAGSTNYADSVKGRFTISRDNAKNTVYLQMNSLKPEDTAVYYCAAYYRRVVYYPTAYYIRKYDYWGQGTQVTVSS
polyreactivity (PSR sort gate): high polyreactivity

QVQLEESGGGLVQAGGSLRLSCAASGRIFVNYDMGSDRQAPGKERELVADISISGSTDYADSVKGRFTISRDNAKNTVYLQMNSLKPEDTAVYYCATSFYVSDYYVPYEMGYWGQGTQVTVSS
polyreactivity (PSR sort gate): low polyreactivity

QVQLVESGGGLVQAGGSLRLSCAASGRISRLNAMGWYRQAPGKERELVATISGRGGGTYYADSVKGRFTISRDNAKNTVYLQMNSLKPEDTAVYYCAVRGLYQGRRRYSSEYDYWGQGTQVTVSS
polyreactivity (PSR sort gate): high polyreactivity

QVQLVESGGGLVQAGGSLRLSCAASGSTFDPYGMGWYRQAPGKERELVAAITSSGRTNYADSVKGRFTISRDNAKNTVYLQMNSLKPEDTAVYYCATRKERYFYRGYEYWGQGTQVTVSS
polyreactivity (PSR sort gate): low polyreactivity

QVQLVESGGGLVQAGGSLRLSCAASGIILATYAMGLYRQAPGKEMELVAAISWSGGRTYYADSVKGRFTISRDKAKNTVYLQMNSLKPEDTAVYYCNAAYPAYGRTQYGRYDYWGQGTQVTVSS
polyreactivity (PSR sort gate): high polyreactivity

QVQLVESGGGLVQAGGSLRLSCAASGIILPYYAMGWYRQAPGKEREFVATISSDGTSTYYADSVKGRFTISRDNAKNTVYLQMNSLKPEDTAVYYCAARIRQNPGGDNSWGQGTQVTVSS
polyreactivity (PSR sort gate): low polyreactivity

QVQLVESGGGLVQAGGSLRLSCAASGITFAPYAMGWYRQAPGKERELVATITWSGGSTYYADSVKGRFTISRDNAKNTVYLQMNSLKPEDTAVYYCAAYNDTVPSAAHIYESWGQGTQVTVSS
polyreactivity (PSR sort gate): low polyreactivity

QVQLVESGGGLVQAGGSLRLSCAASGRNLYYYAMGWYRQAPGKERELVAAITSGGSTYADSVKGRFTISRDNAKNTVYLQMNSLKPEDTAVYYCNARPVYGSRFYSAVRMEYWGQGTQVTVSS
polyreactivity (PSR sort gate): low polyreactivity

QVQLVESGGGLVQAGGSLRLSCAASGGTFQDYGMGWYRQAPGTERELVAAITWSGGSTYYADSVKGRFTISRDNAKNTVYLQMNSLKPEDTAVYYCAAVYADVYLYLTAYDYWGQGTQVTVSS
polyreactivity (PSR sort gate): low polyreactivity

QVQLVESGGGLVKAGGSLRLSCAASGFTFYTYTMGWYRQAPGKERELVAVISRSGGSTYYADSVKGRFTISRDNAKNTVYLQMNSLKPEDTAVYYCNAGYWRFIDSYDYWGQGTQVTVSS
polyreactivity (PSR sort gate): high polyreactivity

QVQLVESGGGLVQAGGSLRLSCAASGRIFYLYTMAWYRQAPGKERELVAAITWSGGRTFYADSVKGRFTISRDNAKNTVYLQMNSLKPEDTAVYYCAARAYDSVGKYYYWGQGTQVNVSS
polyreactivity (PSR sort gate): high polyreactivity

QVQLVESGGGLVQAGGSLRLSCAASGSTFFVYDMGWYRQAPGKERELVAAISSGGTTTYADSVKGRFTISRDNAKNTVNLQMNSLKPEDTAVYYCNARQYTRPYAFDYWGQGTQVTVSS
polyreactivity (PSR sort gate): low polyreactivity

QVQLVESGGGLVQAGGSLRLSCAASGFTFSSYAMGWYRQAPGKERELVAAISYSGGSTYYADSVKGRFTISRDNAKNTVYLQMNSLKPEDTAVYYCAAQRGSEYYWGQGTQVTVSS
polyreactivity (PSR sort gate): high polyreactivity

QVQLVESGGGLVQAGGSLRLSCAASGRIFSYYAMGWYRQAPGKERELVAAISYSRTYYADSVKGRFTISRDNAKNTVLLQMNSLKPEDTAVYYCNVKSKYRYGYWGQGTQVTVSS
polyreactivity (PSR sort gate): high polyreactivity
